Test results as given in US20240084023A1 (NGM BIOPHARMACEUTICALS, published 2024).
Numbering of substitutions follows the chain as printed.

Legend:
Test in all cases: flow cytometry on transfected 293XP cells
[1] = target: T1, GCGR extracellular domain alanine mutant R116A (human, UniProt P47871 26-136, limits assumed)
T1 construct: expressed in 293XP cells
T1 chain: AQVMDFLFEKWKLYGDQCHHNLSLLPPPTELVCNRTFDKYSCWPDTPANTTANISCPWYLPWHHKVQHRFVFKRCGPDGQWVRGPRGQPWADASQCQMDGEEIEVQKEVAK
Protocol: (§1) To assist in gathering information on the GCGR epitope that the 6B5 binning group bound to, “alanine scanning mutagenesis” was undertaken. These alanine scanning mutagenesis platform is a technique used for mapping both linear and conformational antigen epitopes by evaluating the effects of point mutations across a target protein. Single residues in a target protein are replaced by alanine one at a time to construct a mutant library. Each variant is assayed for its ability to bind to an antibody of interest. […] Amino acids across the extracellular domain of GCGR were mutated to alanine and the anti-GCGR antibody Hz6B5 was tested for binding to the alanine mutants.
(§2) The wild-type GCGR extracellular domain and the alanine mutants were each transfected into 293XP cells and incubated for 24 hours. Antibody Hz6B5 was incubated with the transfected cells for 30 minutes at 4° C. After washing with PBS/1% BSA/0.1% azide, the cells were incubated with a labeled anti-mouse Fc antibody (Jackson Immunoresearch) for 30 minutes at 4° C. After washing with PBS/1% BSA/0.1% azide, the cells were analyzed using a flow cytometer BD (FACSCalibur instrument) and cytometric analytical software (FlowJo). A serum sample from a mouse immunized with human GCGR was used as positive control to confirm expression of the alanine mutants.

[2] = target: T2, wild-type GCGR extracellular domain expressed in 293XP cells (human, UniProt P47871 26-136, limits assumed)
T2 construct: transfected into 293XP cells; also called WT GCGR
Protocol: as §1, §2

[3] = target: T3, GCGR extracellular domain alanine mutant K90A (human, UniProt P47871 26-136, limits assumed)
T3 construct: expressed in 293XP cells
T3 chain: T1 chain with K65A, A91R
Protocol: as §1, §2

[4] = target: T4, GCGR extracellular domain alanine mutant L50A (human, UniProt P47871 26-136, limits assumed)
T4 construct: expressed in 293XP cells
T4 chain: T1 chain with L25A, A91R
Protocol: as §1, §2

[5] = target: T5, GCGR extracellular domain alanine mutant K98A (human, UniProt P47871 26-136, limits assumed)
T5 construct: expressed in 293XP cells
T5 chain: T1 chain with K73A, A91R
Protocol: as §1, §2

[6] = target: T6, GCGR extracellular domain alanine mutant F31A (human, UniProt P47871 26-136, limits assumed)
T6 construct: expressed in 293XP cells
T6 chain: T1 chain with F6A, A91R
Protocol: as §1, §2

[7] = target: T7, GCGR extracellular domain alanine mutant P110A (human, UniProt P47871 26-136, limits assumed)
T7 construct: expressed in 293XP cells
T7 chain: T1 chain with P85A, A91R
Protocol: as §1, §2

[8] = target: T8, GCGR extracellular domain alanine mutant R108A (human, UniProt P47871 26-136, limits assumed)
T8 construct: expressed in 293XP cells
T8 chain: T1 chain with R83A, A91R
Protocol: as §1, §2

[9] = target: T9, GCGR extracellular domain alanine mutant T75A (human, UniProt P47871 26-136, limits assumed)
T9 construct: expressed in 293XP cells
T9 chain: T1 chain with T50A, A91R
Protocol: as §1, §2

[10] = target: T10, GCGR extracellular domain alanine mutant W106A (human, UniProt P47871 26-136, limits assumed)
T10 construct: expressed in 293XP cells
T10 chain: T1 chain with W81A, A91R
Protocol: as §1, §2

[11] = target: T11, GCGR extracellular domain alanine mutant Q113A (human, UniProt P47871 26-136, limits assumed)
T11 construct: expressed in 293XP cells
T11 chain: T1 chain with Q88A, A91R
Protocol: as §1, §2

[12] = target: T12, GCGR extracellular domain alanine mutant Y84A (human, UniProt P47871 26-136, limits assumed)
T12 construct: expressed in 293XP cells
T12 chain: T1 chain with Y59A, A91R
Protocol: as §1, §2

[13] = target: T13, GCGR extracellular domain alanine mutant R111A (human, UniProt P47871 26-136, limits assumed)
T13 construct: expressed in 293XP cells
T13 chain: T1 chain with R86A, A91R
Protocol: as §1, §2

B1: anti-GCGR antibody Hz6B5 (antibody, V domains shown)
VH: QVQLVQSGAEVKKPGSSVKVSCKASGFTFTNHWLGWVRQAPGQGLEWIGDIYPGGYYINYNEKFKGRVTITADESTSTAYMELSSLRSEDTAVYYCARHTNYGSDYWGQGTTVTVSS
VL: DVVMTQSPLSLPVTLGQPASISCRSSQSIVDSYGNTFLEWYQQRPGQSPRLLIYKVSNRLSGVPDRFSGSGSGTDFTLKISRVEAEDVGVYYCFQGSHVPWTFGQGTKLEIK
notes: Humanized 6B5
% positive cells [1]: 85.9%
% positive cells [2]: 87.8%
% positive cells [3]: 83%
% positive cells [4]: 86.6%
% positive cells [5]: 82.5%
% positive cells [6]: 85.1%
% positive cells [7]: 84.7%
% positive cells [8]: 87%
% positive cells [9]: 84.9%
% positive cells [10]: 60.8%
% positive cells [11]: 83.4%
% positive cells [12]: 63.4%
% positive cells [13]: 84.5%
